These results are taken from the supplement of paper PMC9112550, “Optimization of the antimicrobial peptide Bac7 by deep mutational scanning” (BMC Biology, 2022).
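Note: peptides expressed intracellularly from a pBAD plasmid library in pooled LB shake-flask culture, induced with 0.3% L-arabinose, DNA abundance read by NGS, three biological replicates, DESeq2 with apeglm shrinkage.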

For the data set, the system named is Escherichia coli TOP10. Kind of data set: shrunken log2 fold change of peptide-encoding DNA abundance (4.5 h post-induction vs induction); higher = less antimicrobial activity (less host growth inhibition). Conditions: time post-induction: 4.5 h; library: site-saturation at positions 5, 18, 19, 20.
RRIRNRPPRLPRPRPRPEYSPRP: the “shrunken log2 fold change” value is -0.272.
In the case of RRIRCRPPRLPRPRPRPPIMPRP it was -0.0556; in that of RRIRFRPPRLPRPRPRPETHPRP, -0.0779.
In the case of RRIRCRPPRLPRPRPRPVNSPRP it was -0.418; in that of RRIRFRPPRLPRPRPRPDKRPRP, -0.0786.
For RRIRVRPPRLPRPRPRPYHQPRP, the “shrunken log2 fold change” value was determined as 0.00427.
Consider RRIRWRPPRLPRPRPRPNCKPRP, for which the “shrunken log2 fold change” value was -0.0223.
Turning to RRIRLRPPRLPRPRPRPWTWPRP, the “shrunken log2 fold change” value came out at 0.0307.
As for RRIRLRPPRLPRPRPRPCSTPRP, the “shrunken log2 fold change” value is -0.0337.
In the case of RRIRPRPPRLPRPRPRPDPTPRP it was 0.166; in that of RRIRGRPPRLPRPRPRPNMMPRP, 0.0511; in that of RRIRRRPPRLPRPRPRPEFDPRP, 0.486.
As for RRIRERPPRLPRPRPRPMFTPRP, the “shrunken log2 fold change” value was -0.278.
To RRIRTRPPRLPRPRPRPKSFPRP belongs 0.0134.
In the case of RRIRFRPPRLPRPRPRPTCVPRP it was -0.0732; in that of RRIRYRPPRLPRPRPRPFMVPRP, -1.05.
To RRIRKRPPRLPRPRPRPAEFPRP belongs 0.0773.
On to RRIRKRPPRLPRPRPRPYPGPRP, for which the “shrunken log2 fold change” value is -0.142.
RRIRFRPPRLPRPRPRPEMFPRP: the “shrunken log2 fold change” value worked out at 0.099.
In the case of RRIRCRPPRLPRPRPRPQTHPRP, the “shrunken log2 fold change” value stood at 0.0541.
To RRIRQRPPRLPRPRPRPDVMPRP belongs 0.0589; to RRIRVRPPRLPRPRPRPAEWPRP, 0.129; to RRIRSRPPRLPRPRPRPPYFPRP, -0.0285.
In the case of RRIRGRPPRLPRPRPRPNLSPRP it was 0.477; in that of RRIRERPPRLPRPRPRPEDQPRP, -0.0394; in that of RRIRNRPPRLPRPRPRPIIVPRP, -0.286.
In the case of RRIRPRPPRLPRPRPRPLQHPRP it was -0.17.
On to RRIRDRPPRLPRPRPRPNVSPRP, for which the “shrunken log2 fold change” value is -0.00783.
To RRIRKRPPRLPRPRPRPFYNPRP belongs -0.695.
As to RRIRPRPPRLPRPRPRPEFSPRP, the “shrunken log2 fold change” value is -0.0202.
In the case of RRIRSRPPRLPRPRPRPRYEPRP it was -0.12; in that of RRIRWRPPRLPRPRPRPECVPRP, 1.26.
To RRIRPRPPRLPRPRPRPDKGPRP belongs 0.118; to RRIRNRPPRLPRPRPRPIEPPRP, -0.00208; to RRIRMRPPRLPRPRPRPEPCPRP, 1.13.
In the case of RRIRRRPPRLPRPRPRPEYFPRP it was 0.2; in that of RRIRMRPPRLPRPRPRPQPVPRP, 0.622.
With RRIRGRPPRLPRPRPRPGGDPRP, the “shrunken log2 fold change” value was found to be 0.937.
Regarding RRIRMRPPRLPRPRPRPYVWPRP, the “shrunken log2 fold change” value is -0.0956.
In the case of RRIRERPPRLPRPRPRPGEYPRP it was -0.267; in that of RRIRERPPRLPRPRPRPNIMPRP, -0.444.
For the sequence RRIRQRPPRLPRPRPRPLSWPRP, the “shrunken log2 fold change” value came out at 0.485.
To RRIRERPPRLPRPRPRPKSEPRP belongs 0.196; to RRIRWRPPRLPRPRPRPAVGPRP, 0.229.
In the case of RRIRVRPPRLPRPRPRPHWGPRP it was -0.0382; in that of RRIRNRPPRLPRPRPRPSKCPRP, -0.126; in that of RRIRTRPPRLPRPRPRPRVKPRP, -0.0675.
With RRIRMRPPRLPRPRPRPPCAPRP, the “shrunken log2 fold change” value is 2.14.
In the case of RRIRERPPRLPRPRPRPFVEPRP it was 0.0315.
For the sequence RRIRERPPRLPRPRPRPAHSPRP, the “shrunken log2 fold change” value is -0.159.
In the case of RRIRQRPPRLPRPRPRPCPWPRP it was 0.0978; in that of RRIRWRPPRLPRPRPRPTRNPRP, -0.0437; in that of RRIRNRPPRLPRPRPRPMDVPRP, 0.0039.
In the case of RRIRRRPPRLPRPRPRPCCIPRP it was -0.179.
In the case of RRIRWRPPRLPRPRPRPRPDPRP it was 0.518; in that of RRIRFRPPRLPRPRPRPPFRPRP, 1.84; in that of RRIRPRPPRLPRPRPRPDLVPRP, -0.0293.
As to RRIRTRPPRLPRPRPRPNLWPRP, the “shrunken log2 fold change” value is -0.0774.
For RRIRPRPPRLPRPRPRPHMQPRP, the “shrunken log2 fold change” value was determined as 0.151.
In the case of RRIRNRPPRLPRPRPRPMILPRP it was -0.0112; in that of RRIRCRPPRLPRPRPRPYQSPRP, -0.307.
To RRIRCRPPRLPRPRPRPTGEPRP belongs 0.156.
In the case of RRIRPRPPRLPRPRPRPSGFPRP it was 0.241; in that of RRIRARPPRLPRPRPRPNSRPRP, 0.0429; in that of RRIRGRPPRLPRPRPRPWECPRP, -0.00149.
Turning to RRIRTRPPRLPRPRPRPIFHPRP, the “shrunken log2 fold change” value was -0.204.
To RRIRERPPRLPRPRPRPSRAPRP belongs 0.12; to RRIRFRPPRLPRPRPRPFTYPRP, -0.208; to RRIRKRPPRLPRPRPRPQGLPRP, 0.256.
In the case of RRIRMRPPRLPRPRPRPDCWPRP it was 1.96.
To RRIRHRPPRLPRPRPRPRQSPRP belongs 0.144; to RRIRVRPPRLPRPRPRPFQCPRP, -0.0433.
With RRIRGRPPRLPRPRPRPSTKPRP, the “shrunken log2 fold change” value is 0.261.
On to RRIRGRPPRLPRPRPRPNETPRP, for which the “shrunken log2 fold change” value is 0.0274.
In the case of RRIRNRPPRLPRPRPRPGTCPRP it was -0.0314.
Regarding RRIRCRPPRLPRPRPRPERWPRP, the “shrunken log2 fold change” value is 0.877.
In the case of RRIRNRPPRLPRPRPRPELPPRP, the “shrunken log2 fold change” value is -0.098.
To RRIRARPPRLPRPRPRPMGLPRP belongs 0.00193.
In the case of RRIRCRPPRLPRPRPRPGNMPRP it was -0.368; in that of RRIRMRPPRLPRPRPRPQIAPRP, 0.208; in that of RRIRTRPPRLPRPRPRPHLIPRP, 2.85.
To RRIRSRPPRLPRPRPRPTYAPRP belongs 0.0244.
As to RRIRMRPPRLPRPRPRPKDVPRP, the “shrunken log2 fold change” value was -0.000921.
RRIRRRPPRLPRPRPRPKLLPRP: the “shrunken log2 fold change” value was determined as 0.178.
To RRIRCRPPRLPRPRPRPKFSPRP belongs -0.0966; to RRIRLRPPRLPRPRPRPEIVPRP, 0.0118; to RRIRLRPPRLPRPRPRPMVPPRP, 0.096.
In the case of RRIRWRPPRLPRPRPRPTCFPRP it was 0.0863.
To RRIRHRPPRLPRPRPRPCVYPRP belongs -0.62; to RRIRFRPPRLPRPRPRPDSTPRP, -0.596.
In the case of RRIRIRPPRLPRPRPRPLGRPRP, the “shrunken log2 fold change” value was 0.39.
As to RRIRNRPPRLPRPRPRPNYIPRP, the “shrunken log2 fold change” value is -0.318.
In the case of RRIRPRPPRLPRPRPRPSVEPRP it was -0.00032; in that of RRIRQRPPRLPRPRPRPWCSPRP, -0.0146; in that of RRIRNRPPRLPRPRPRPCFMPRP, -0.742.
To RRIRYRPPRLPRPRPRPDYMPRP belongs -0.761; to RRIRLRPPRLPRPRPRPVYCPRP, -0.303; to RRIRNRPPRLPRPRPRPASEPRP, -0.0216.
To RRIRERPPRLPRPRPRPNIEPRP belongs -0.136; to RRIRWRPPRLPRPRPRPNWFPRP, 0.156; to RRIRYRPPRLPRPRPRPGKAPRP, -0.00206.
Take RRIRPRPPRLPRPRPRPHVLPRP: the “shrunken log2 fold change” value was -0.0256.
In the case of RRIRKRPPRLPRPRPRPCDAPRP it was 0.0682.
In the case of RRIRVRPPRLPRPRPRPDGHPRP it was -0.00145; in that of RRIRFRPPRLPRPRPRPFQHPRP, -0.209.
RRIRVRPPRLPRPRPRPILSPRP: the “shrunken log2 fold change” value is -0.134.
RRIRFRPPRLPRPRPRPIETPRP: the “shrunken log2 fold change” value was -0.186.
In the case of RRIRARPPRLPRPRPRPQPTPRP it was 0.781; in that of RRIRARPPRLPRPRPRPIVTPRP, 0.155.
To RRIRPRPPRLPRPRPRPSYGPRP belongs -0.2.
In the case of RRIRARPPRLPRPRPRPNQIPRP, the “shrunken log2 fold change” value is 0.0775.
In the case of RRIRFRPPRLPRPRPRPDWKPRP it was 0.0379; in that of RRIRYRPPRLPRPRPRPAGMPRP, -0.0428.
To RRIRFRPPRLPRPRPRPDTFPRP belongs -0.144; to RRIRFRPPRLPRPRPRPWGAPRP, 0.0596.
In the case of RRIRQRPPRLPRPRPRPEWCPRP it was -0.0929.
Take RRIRVRPPRLPRPRPRPWATPRP: the “shrunken log2 fold change” value is -0.122.
Take RRIRCRPPRLPRPRPRPIWGPRP: the “shrunken log2 fold change” value came to 0.25.
In the case of RRIRIRPPRLPRPRPRPYEEPRP it was -0.828; in that of RRIRYRPPRLPRPRPRPVNGPRP, -0.338; in that of RRIRNRPPRLPRPRPRPSYQPRP, -0.75.
As for RRIRHRPPRLPRPRPRPEFLPRP, the “shrunken log2 fold change” value was -0.0472.
To RRIRIRPPRLPRPRPRPMWRPRP belongs 0.19.
In the case of RRIRCRPPRLPRPRPRPHHEPRP it was -0.24; in that of RRIRFRPPRLPRPRPRPDLTPRP, -0.181.
